Legend:
Ac-POG˜Hphe-L-Ambh-Hynic = target: T1, Ac-POG˜Hphe-L-Ambh-Hynic
T1 chain: PXGXL

Ac-POG˜Hphe-L-Hynic = target: T2, Ac-POG˜Hphe-L-Hynic
T2 chain: PXGXL

Ac-NGlu-POG˜Hphe-L-Hynic = target: T3, Ac-NGlu-POG˜Hphe-L-Hynic (not fully specified)
T3 chain: XPXGXL

[1] = target: T4, Ac-NGlu-PLG˜Hphe-YL-Ambh-Hynic (not fully specified)
T4 chain: XPLGXYL

[2] = target: T5, Ac-PLG˜Hphe-YL-Ahxh-Hynic (not fully specified)
T5 chain: PLGXYL

Ac-PLG˜Hphe-YL-Hynic = target: T6, Ac-PLG˜Hphe-YL-Hynic
T6 chain: PLGXYL

[3] = target: T7, Ac-Csa-PLG˜Hphe-YL-Ambh-Hynic (not fully specified)
T7 chain: XPLGXYL

[4] = target: T8, Ac-PLG˜Hphe-OL-Ambh-Hynic
T8 chain: PLGXXL

B1: mouse MMP9 (protein)
chain: FQTFKGLKWDHHNITYWIQNYSEDLPRDMIDDAFARAFAVWGEVAPLTFTRVYGPEADIVIQFGVAEHGDGYPFDGKDGLLAHAFPPGAGVQGDAHFDDDELWSLGKGVVIPTYYGNSNGAPCHFPFTFEGRSYSACTTDGRNDGTPWCSTTADYDKDGKFGFCPSERLYTEHGNGEGKPCVFPFIFEGRSYSACTTKGRSDGYRWCATTANYDQDKLYGFCPTRVDATVVGGNSAGELCVFPFVFLGKQYSSCTSDGRRDGRLWCATTSNFDTDKKWGFCPDQGYSLFLVAAHEFGHALGLDHSSVPEALMYPLYSYLEGFPLNKDDIDGIQYLYGRGSKPDPRPPATTTTEPQPTAPPTMCPTIPPTAYPTVGPTVGPTGAPSPGPTSSPSPGPTGAPSPGPTAPPTAGSSEASTESLSPADNPCNVDVFDAIAEIQGALHFFKDGWYWKFLNHRGSPLQGPFLTARTWPALPATLDSAFEDPQTKRVFFFSGRQMWVYTGKTVLGPRSLDKLGLGPEVTHVSGLLPRRLGKALLFSKGRVWRFDLKSQKVDPQSVIRVDKEFSGVPWNSHDIFQYQDKAYFCHGKFFWRVSFQNEVNKVDHEVNQVDDVGYVTYDLLQCP
B1 showed a Kcat/Km (Ac-POG˜Hphe-L-Ambh-Hynic) of 14400 M⁻¹ s⁻¹, a Kcat/Km (Ac-POG˜Hphe-L-Hynic) of 897 M⁻¹ s⁻¹ and a Kcat/Km (Ac-NGlu-POG˜Hphe-L-Hynic) of 571 M⁻¹ s⁻¹. For the same protein, the Kcat/Km [1] was over 100000 M⁻¹ s⁻¹, the Kcat/Km [2] was over 100000 M⁻¹ s⁻¹ and the Kcat/Km (Ac-PLG˜Hphe-YL-Hynic) was over 100000 M⁻¹ s⁻¹. It also gave a Kcat/Km [3] of 31000 M⁻¹ s⁻¹ and a Kcat/Km [4] of 48000 M⁻¹ s⁻¹.

— patent US20050106100
